Source: patent US11912777 (NANJING LEADS BIOLABS, dated 2024)

What was measured:
[1] = biological target: T1, human TNFR2 expressed on activated PBMCs (human, UniProt P20333 23-461); assay: flow cytometry on activated human PBMCs
T1 construct: whole, on cells; Native receptor on primary cells
T1 sequence (looked up): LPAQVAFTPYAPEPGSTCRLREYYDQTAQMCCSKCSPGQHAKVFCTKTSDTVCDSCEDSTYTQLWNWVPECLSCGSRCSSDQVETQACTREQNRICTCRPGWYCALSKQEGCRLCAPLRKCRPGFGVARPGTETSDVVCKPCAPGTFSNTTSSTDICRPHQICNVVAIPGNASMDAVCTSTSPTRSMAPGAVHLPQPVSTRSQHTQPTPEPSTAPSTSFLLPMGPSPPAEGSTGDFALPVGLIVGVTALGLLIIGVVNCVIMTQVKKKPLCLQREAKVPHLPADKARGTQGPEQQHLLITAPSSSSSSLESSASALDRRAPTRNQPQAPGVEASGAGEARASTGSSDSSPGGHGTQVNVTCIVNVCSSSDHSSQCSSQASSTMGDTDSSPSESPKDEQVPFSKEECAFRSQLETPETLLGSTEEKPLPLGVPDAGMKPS

[2] = biological target: T2, human TNFR2, mouse Fc-tag (human); assay: ELISA on coated human TNFR2-mFc, left panel; fit value of a flat control curve; unit from the axis [b]
T2 construct: also called hTNFR2-mFc; huTNFR2-mFc
T2 chain: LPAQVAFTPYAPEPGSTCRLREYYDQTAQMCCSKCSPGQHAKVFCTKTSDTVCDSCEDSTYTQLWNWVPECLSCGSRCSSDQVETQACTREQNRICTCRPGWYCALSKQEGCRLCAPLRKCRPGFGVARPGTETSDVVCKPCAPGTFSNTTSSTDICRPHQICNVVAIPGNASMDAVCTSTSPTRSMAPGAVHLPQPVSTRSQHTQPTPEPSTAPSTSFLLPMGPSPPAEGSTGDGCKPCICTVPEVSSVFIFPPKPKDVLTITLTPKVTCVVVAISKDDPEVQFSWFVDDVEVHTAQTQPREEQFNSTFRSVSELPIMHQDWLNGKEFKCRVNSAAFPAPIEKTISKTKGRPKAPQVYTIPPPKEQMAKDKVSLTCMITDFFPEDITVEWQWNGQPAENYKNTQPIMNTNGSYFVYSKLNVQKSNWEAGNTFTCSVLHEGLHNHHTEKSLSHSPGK

[3] = biological target: T3, Human TNFR2, human Fc tag protein (human); assay: ELISA on coated huTNFR2-huFc, middle panel (with 43B7A4); fit value of a flat control curve; unit from the axis
T3 construct: also called huTNFR2-huFc; HuTNFR2-huFc

[4] = biological target: T3, Human TNFR2, human Fc tag protein; assay: ELISA on coated huTNFR2-huFc, top panel (with 32A1D5); fit value of a flat control curve; unit from the axis
[5] = biological target: T4, Cynomolgus TNFR2, human Fc tag protein (cynomolgus); assay: ELISA on coated cyno-TNFR2-huFc; bottom panel
T4 construct: also called cyno-TNFR2-huFc

[6] = biological target: T2, human TNFR2, mouse Fc-tag; assay: ELISA on coated human TNFR2-mFc, left panel; fit value of a flat control curve; unit from the axis [a]
[7] = biological target: T2, human TNFR2, mouse Fc-tag; assay: blocking ELISA: hTNFR2-mFc mixed with antibody, binding to coated TNF-alpha his tag; right panel; fit value of a flat control curve; unit from the axis [a]

B1: negative control IgG (antibody, V domains shown)
VH: QVQLVESGGGAVQPGRSLRLSCAASGFTFSSYGMHWVRQAPGKGLEWVAVILYDGSDKFYADSVKGRFTISRDNSKNTLYLQMNSLRAEDTAVYYCAKVAVAGTHFDYWGQGTLVTVSS
VL: DIQMTQSPSSLSASVGDRVTITCRASQGIRNDLGWYQQKPGKAPKLLIYAASSLQSGVPSRFSGSGSGTDFTLTISSLQPEDFATYYCQQLNSYPPTFGGGTKVEIKR
notes: also called IgG Control; IgG (Negative Control)
With B1 the binding result [1] was “no binding”, the EC50 [2] was about 3.06 nM and the EC50 [3] was 277 nM. For the same binder, the EC50 [4] was about 0.102 nM, the binding result [5] was “no binding (tested: about 1 nM)” and the EC50 [6] was about 0.102 nM. For the same binder, the IC50 [7] was about 2.06 nM.
